This passage reports Kd results from patent US20180298360, “CAS9 VARIANTS AND METHODS OF USE THEREOF” (The Regents of the University of California, published 2018).

This data set has as its target T1, ΔHNH-Cas9 (ΔHNH-4; T769-K918 replaced by GGSGGS) (Streptococcus pyogenes).
T1 chain: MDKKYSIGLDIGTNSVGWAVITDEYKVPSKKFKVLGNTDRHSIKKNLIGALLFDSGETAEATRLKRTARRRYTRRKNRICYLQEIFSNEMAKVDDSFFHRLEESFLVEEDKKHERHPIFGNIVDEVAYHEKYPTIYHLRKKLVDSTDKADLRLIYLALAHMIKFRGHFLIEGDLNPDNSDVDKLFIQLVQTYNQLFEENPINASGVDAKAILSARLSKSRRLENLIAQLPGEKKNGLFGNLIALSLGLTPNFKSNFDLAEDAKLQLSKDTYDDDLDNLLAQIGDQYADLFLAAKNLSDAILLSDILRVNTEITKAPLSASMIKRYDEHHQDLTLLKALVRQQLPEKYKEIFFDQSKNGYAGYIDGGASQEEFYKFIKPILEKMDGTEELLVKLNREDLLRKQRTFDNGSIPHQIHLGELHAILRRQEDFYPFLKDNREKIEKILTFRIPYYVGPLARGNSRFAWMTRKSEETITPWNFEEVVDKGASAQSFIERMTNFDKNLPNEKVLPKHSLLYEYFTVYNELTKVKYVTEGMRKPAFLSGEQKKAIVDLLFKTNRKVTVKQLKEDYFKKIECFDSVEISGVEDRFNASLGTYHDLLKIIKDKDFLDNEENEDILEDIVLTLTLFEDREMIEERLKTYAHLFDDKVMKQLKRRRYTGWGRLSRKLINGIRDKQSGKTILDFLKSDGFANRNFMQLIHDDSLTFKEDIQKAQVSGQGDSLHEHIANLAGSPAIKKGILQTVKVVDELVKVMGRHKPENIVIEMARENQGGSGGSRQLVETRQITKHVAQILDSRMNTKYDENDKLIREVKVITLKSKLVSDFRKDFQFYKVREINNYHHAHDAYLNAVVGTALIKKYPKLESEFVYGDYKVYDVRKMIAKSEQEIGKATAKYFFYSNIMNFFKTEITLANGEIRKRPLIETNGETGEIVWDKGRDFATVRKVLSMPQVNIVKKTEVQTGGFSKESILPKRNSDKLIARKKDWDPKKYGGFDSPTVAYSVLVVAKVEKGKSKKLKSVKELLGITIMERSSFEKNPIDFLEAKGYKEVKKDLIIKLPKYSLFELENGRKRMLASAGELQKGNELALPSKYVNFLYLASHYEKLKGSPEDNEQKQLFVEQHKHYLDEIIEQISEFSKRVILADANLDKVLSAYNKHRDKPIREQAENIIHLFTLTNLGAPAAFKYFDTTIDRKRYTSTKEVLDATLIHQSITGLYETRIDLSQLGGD
As to the kind of experiment: EMSA; PAM TGG; 5 mM MgCl2, 100 mM KCl, pH 7.5, 50 ug/mL heparin, room temperature, 100 nM sgRNA. Particulars: tags: N-terminal His10-MBP, TEV protease treated; label: 5'-radiolabel; single-guide RNA.

Experimental: Binding reactions (15 μL) were performed at room temperature in Reaction Buffer supplemented with 50 μg/mL heparin using <0.1 nM radiolabeled dsDNA substrates. Reactions were resolved by 8% native polyacrylamide gel electrophoresis (0.5×TBE, 5 mM MgCl₂) for 1.5-2 hr at 4° C. in a running buffer containing 0.5×TBE and 5 mM MgCl₂. Reactions were visualized by phosphorimaging (GE Healthcare).
Reactions were resolved by 8% native polyacrylamide gel electrophoresis. […] Solid lines represent fits from binding isotherms.

B1: sgRNA (bacteriophage target) ; 55-bp DNA substrate (ssRNA ; dsDNA)
RNA: GACGCAUAAAGAUGAGACGCGUUUUAGAGCUAUGCUGUUUUGGAAACAAAACAGCAUAGCAAGUUAAAAUAAGGCUAGUCCGUUAUCAACUUGAAAAAGUGGCACCGAGUCGGUGCUUUUUUUGGAUC
DNA 1: AGCAGAAATCTCTGCTGACGCATAAAGATGAGACGCTGGAGTACAAACGTCAGCT
DNA 2: AGCTGACGTTTGTACTCCAGCGTCTCATCTTTATGCGTCAGCAGAGATTTCTGCT
Take B1: the Kd worked out at 1.2 nM.

The Kd is the constant that tells how readily two partners part at equilibrium.
